{
  "source": "patent US20090318673A1",
  "about": "(NEC SOFT, published 2009)",
  "proteins": {"B1": {"name": "GFP-like fluorescent protein from Chiridius poppei, CpYGFP (recombinant, wild type) (other)", "chain": "MTTFKIESRIHGNLNGEKFELVGGGVGEEGRLEIEMKTKDKPLAFSPFLLSHCMGYGFYHFASFPKGTKNIYLHAATNGGYTNTRKEIYEDGGILEVNFRYTYEFNKIIGDVECIGHGFPSQSPIFKDTIVKSCPTVDLMLPMSGNIIASSYARAFQLKDGSFYTAEVKNNIDFKNPIHESFSKSGPMFTHRRVEETHTKENLAMVEYQQVFNSAPRDM", "modifications": "G55-Y56-G57 cyclised and oxidised to the p-hydroxybenzylideneimidazolinone fluorescent moiety", "notes": "Expressed in E. coli from pET101-NFP, purified and crystallised; In the crystal (space group C2221, PDB 2DD7) it is seen as a dimer; also called recombinant CpYGFP; wild-type CpYGFP"}},
  "molecular_target": "the molecule itself",
  "test": "X-ray crystal structure, 1.9 A, space group C2221",
  "description": "Programs, MOSFLM and SCALA (CCP4) were used in the data processing of the detected diffraction pattern and intensity data.",
  "data": [
    {"protein": "B1", "values": [
      {"measurement": "binding result", "value": "binds"}
    ]}
  ]
}
